Laboratory results from patent US20220372155A1 (LYVGEN BIOPHARMA, published 2022).

biological target: T1, human CD40 expressed on CHO cells (human, UniProt P25942 21-277); experiment: FACS, CHO cells
T1 construct: whole, on cells; also used for the reporter cells over-expressing human CD40; also called cellular CD40; CHO-CD40 cells
T1 sequence (P25942 21-277): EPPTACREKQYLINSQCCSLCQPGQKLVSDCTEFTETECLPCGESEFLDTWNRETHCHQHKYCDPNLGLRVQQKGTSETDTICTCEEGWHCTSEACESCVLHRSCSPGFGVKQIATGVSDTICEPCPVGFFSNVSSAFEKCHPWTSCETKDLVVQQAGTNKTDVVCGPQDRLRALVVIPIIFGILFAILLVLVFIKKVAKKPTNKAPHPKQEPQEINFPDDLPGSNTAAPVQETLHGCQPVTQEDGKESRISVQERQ

| Binder | binding result |
| --- | --- |
| Ly419 (bispecific antibody, human IgG1, kappa, Ly311 HC (IgG1 mutated Fc) + Ly311 LC-Ly253 scFv VL-VH) heavy: EVQLVESGGGVVQPGRSLRLSCSASGFDFTTYWMSWVRQAPGKGLEWIGEIHPDSSTINYAPSLKDRFTISRDNAKNTLFLQMDSLRPEDTGVYFCASLYFGFPWFAYWGQGTPVTVSSASTKGPSVFPLAPSSKSTSGGTAALGCLVKDYFPEPVTVSWNSGALTSGVHTFPAVLQSSGLYSLSSVVTVPSSSLGTQTYICNVNHKPSNTKVDKKVEPKSCDKTHTCPPCPAPELLGPSVFLFPPKPKDTLMISRTPEVTCVVVDVSHEDPEVKFNWYVDGVEVHNAKTKPREEQYNSTYRVVSVLTVLHQDWLNGKEYKCKVSNKALPAPIEKTISKAKGQPREPQVYTLPPSREEMTKNQVSLTCLVKGFYPSDIAVEWESNGQPENNYKTTPPVLDSDGSFFLYSKLTVDKSRWQQGNVFSCSVMHEALHNHYTQKSLSLSPGK light: not shown | binds |
| Ly420 (bispecific antibody, human IgG1, kappa, Ly311 HC (IgG1 mutated Fc) + Ly311 LC-Ly253 scFv VH-VL) heavy: EVQLVESGGGVVQPGRSLRLSCSASGFDFTTYWMSWVRQAPGKGLEWIGEIHPDSSTINYAPSLKDRFTISRDNAKNTLFLQMDSLRPEDTGVYFCASLYFGFPWFAYWGQGTPVTVSSASTKGPSVFPLAPSSKSTSGGTAALGCLVKDYFPEPVTVSWNSGALTSGVHTFPAVLQSSGLYSLSSVVTVPSSSLGTQTYICNVNHKPSNTKVDKKVEPKSCDKTHTCPPCPAPELLGPSVFLFPPKPKDTLMISRTPEVTCVVVDVSHEDPEVKFNWYVDGVEVHNAKTKPREEQYNSTYRVVSVLTVLHQDWLNGKEYKCKVSNKALPAPIEKTISKAKGQPREPQVYTLPPSREEMTKNQVSLTCLVKGFYPSDIAVEWESNGQPENNYKTTPPVLDSDGSFFLYSKLTVDKSRWQQGNVFSCSVMHEALHNHYTQKSLSLSPGK light: not shown | binds |
| Ly415 (bispecific antibody, human IgG1, kappa, Ly312 HC (IgG1 mutated Fc) + Ly312 LC-TM559 scFv VL-VH) heavy: EVQLVESGGGLVQPGGSLRLSCAASGFNIKDTYMHWVRQAPGKGLEWVARIDPANGNSKYADSVKGRFTISADTSKNTAYLQMNSLRAEDTAVYYCAPFGYYVSDYAMAYWGQGTLVTVSSASTKGPSVFPLAPSSKSTSGGTAALGCLVKDYFPEPVTVSWNSGALTSGVHTFPAVLQSSGLYSLSSVVTVPSSSLGTQTYICNVNHKPSNTKVDKKVEPKSCDKTHTCPPCPAPELLGPSVFLFPPKPKDTLMISRTPEVTCVVVDVSHEDPEVKFNWYVDGVEVHNAKTKPREEQYNSTYRVVSVLTVLHQDWLNGKEYKCKVSNKALPAPIEKTISKAKGQPREPQVYTLPPSREEMTKNQVSLTCLVKGFYPSDIAVEWESNGQPENNYKTTPPVLDSDGSFFLYSKLTVDKSRWQQGNVFSCSVMHEALHNHYTQKSLSLSPGK light: DIQLTQSPSSLSASVGDRVTITCRAGESVDIFGVGFLHWYQQKPGKAPKLLIYRASNLESGVPSRFSGSGSRTDFTLTISSLQPEDFATYYCQQTNEDPYTFGQGTKVEIKRTVAAPSVFIFPPSDEQLKSGTASVVCLLNNFYPREAKVQWKVDNALQSGNSQESVTEQDSKDSTYSLSSTLTLSKADYEKHKVYACEVTHQGLSSPVTKSFNRGECGGGGSGGGGSGGGGSGGGGSDIQMTQSPSSLSASVGDRVTITCLASEDISNDLAWYQQKPGKAPKLLIYFVDRLLDGVPSRFSGSGSGTDFTLTISSLQPEDFATYYCQQSYKYPPTFGQGTKLEIKGGGGSGGGGSGGGGSGGGGSEVQLVESGGGLVQPGGSLRLSCAASGFTFTNYGLHWVRQAPGKGLEWVSSISPSGGVTYYRDSVKGRFTISRDNSKNTLYLQMNSLRAEDTAVYYCAKPFLGWGGANWIAHWGQGTLVTVSS | binds |
| Ly423 (bispecific antibody, human IgG1, kappa, Ly312 HC (IgG1 mutated Fc) + Ly312 LC-Ly253 scFv VL-VH) heavy: EVQLVESGGGLVQPGGSLRLSCAASGFNIKDTYMHWVRQAPGKGLEWVARIDPANGNSKYADSVKGRFTISADTSKNTAYLQMNSLRAEDTAVYYCAPFGYYVSDYAMAYWGQGTLVTVSSASTKGPSVFPLAPSSKSTSGGTAALGCLVKDYFPEPVTVSWNSGALTSGVHTFPAVLQSSGLYSLSSVVTVPSSSLGTQTYICNVNHKPSNTKVDKKVEPKSCDKTHTCPPCPAPELLGPSVFLFPPKPKDTLMISRTPEVTCVVVDVSHEDPEVKFNWYVDGVEVHNAKTKPREEQYNSTYRVVSVLTVLHQDWLNGKEYKCKVSNKALPAPIEKTISKAKGQPREPQVYTLPPSREEMTKNQVSLTCLVKGFYPSDIAVEWESNGQPENNYKTTPPVLDSDGSFFLYSKLTVDKSRWQQGNVFSCSVMHEALHNHYTQKSLSLSPGK light: not shown | binds |
| Ly424 (bispecific antibody, human IgG1, kappa, Ly312 HC (IgG1 mutated Fc) + Ly312 LC-Ly253 scFv VH-VL) heavy: EVQLVESGGGLVQPGGSLRLSCAASGFNIKDTYMHWVRQAPGKGLEWVARIDPANGNSKYADSVKGRFTISADTSKNTAYLQMNSLRAEDTAVYYCAPFGYYVSDYAMAYWGQGTLVTVSSASTKGPSVFPLAPSSKSTSGGTAALGCLVKDYFPEPVTVSWNSGALTSGVHTFPAVLQSSGLYSLSSVVTVPSSSLGTQTYICNVNHKPSNTKVDKKVEPKSCDKTHTCPPCPAPELLGPSVFLFPPKPKDTLMISRTPEVTCVVVDVSHEDPEVKFNWYVDGVEVHNAKTKPREEQYNSTYRVVSVLTVLHQDWLNGKEYKCKVSNKALPAPIEKTISKAKGQPREPQVYTLPPSREEMTKNQVSLTCLVKGFYPSDIAVEWESNGQPENNYKTTPPVLDSDGSFFLYSKLTVDKSRWQQGNVFSCSVMHEALHNHYTQKSLSLSPGK light: not shown | binds |
| Ly416 (bispecific antibody, human IgG1, kappa, Ly312 HC (IgG1 mutated Fc) + Ly312 LC-TM559 scFv VH-VL) heavy: EVQLVESGGGLVQPGGSLRLSCAASGFNIKDTYMHWVRQAPGKGLEWVARIDPANGNSKYADSVKGRFTISADTSKNTAYLQMNSLRAEDTAVYYCAPFGYYVSDYAMAYWGQGTLVTVSSASTKGPSVFPLAPSSKSTSGGTAALGCLVKDYFPEPVTVSWNSGALTSGVHTFPAVLQSSGLYSLSSVVTVPSSSLGTQTYICNVNHKPSNTKVDKKVEPKSCDKTHTCPPCPAPELLGPSVFLFPPKPKDTLMISRTPEVTCVVVDVSHEDPEVKFNWYVDGVEVHNAKTKPREEQYNSTYRVVSVLTVLHQDWLNGKEYKCKVSNKALPAPIEKTISKAKGQPREPQVYTLPPSREEMTKNQVSLTCLVKGFYPSDIAVEWESNGQPENNYKTTPPVLDSDGSFFLYSKLTVDKSRWQQGNVFSCSVMHEALHNHYTQKSLSLSPGK light: DIQLTQSPSSLSASVGDRVTITCRAGESVDIFGVGFLHWYQQKPGKAPKLLIYRASNLESGVPSRFSGSGSRTDFTLTISSLQPEDFATYYCQQTNEDPYTFGQGTKVEIKRTVAAPSVFIFPPSDEQLKSGTASVVCLLNNFYPREAKVQWKVDNALQSGNSQESVTEQDSKDSTYSLSSTLTLSKADYEKHKVYACEVTHQGLSSPVTKSFNRGECGGGGSGGGGSGGGGSGGGGSEVQLVESGGGLVQPGGSLRLSCAASGFTFTNYGLHWVRQAPGKGLEWVSSISPSGGVTYYRDSVKGRFTISRDNSKNTLYLQMNSLRAEDTAVYYCAKPFLGWGGANWIAHWGQGTLVTVSSGGGGSGGGGSGGGGSGGGGSDIQMTQSPSSLSASVGDRVTITCLASEDISNDLAWYQQKPGKAPKLLIYFVDRLLDGVPSRFSGSGSGTDFTLTISSLQPEDFATYYCQQSYKYPPTFGQGTKLEIK | binds |
| Ly417 (bispecific antibody, human IgG1, kappa, Ly311 HC (IgG1 mutated Fc)-Ly253 scFv VL-VH + Ly311 LC) heavy: not shown light: DIQLTQSPSSLSASVGDRVTITCKASQDVGTSVAWYQQKPGKAPKLLIYWTSTRHTGVPSRFSGSGSGTDFTFTISSLQPEDIATYYCQQYSLYRSFGQGTKVEIKRTVAAPSVFIFPPSDEQLKSGTASVVCLLNNFYPREAKVQWKVDNALQSGNSQESVTEQDSKDSTYSLSSTLTLSKADYEKHKVYACEVTHQGLSSPVTKSFNRGEC | binds |
| Ly418 (bispecific antibody, human IgG1, kappa, Ly311 HC (IgG1 mutated Fc)-Ly253 scFv VH-VL + Ly311 LC) heavy: not shown light: DIQLTQSPSSLSASVGDRVTITCKASQDVGTSVAWYQQKPGKAPKLLIYWTSTRHTGVPSRFSGSGSGTDFTFTISSLQPEDIATYYCQQYSLYRSFGQGTKVEIKRTVAAPSVFIFPPSDEQLKSGTASVVCLLNNFYPREAKVQWKVDNALQSGNSQESVTEQDSKDSTYSLSSTLTLSKADYEKHKVYACEVTHQGLSSPVTKSFNRGEC | binds |
| Ly421 (bispecific antibody, human IgG1, kappa, Ly312 HC (IgG1 mutated Fc)-Ly253 scFv VL-VH + Ly312 LC) heavy: not shown light: DIQLTQSPSSLSASVGDRVTITCRAGESVDIFGVGFLHWYQQKPGKAPKLLIYRASNLESGVPSRFSGSGSRTDFTLTISSLQPEDFATYYCQQTNEDPYTFGQGTKVEIKRTVAAPSVFIFPPSDEQLKSGTASVVCLLNNFYPREAKVQWKVDNALQSGNSQESVTEQDSKDSTYSLSSTLTLSKADYEKHKVYACEVTHQGLSSPVTKSFNRGEC | binds |
| Ly422 (bispecific antibody, human IgG1, kappa, Ly312 HC (IgG1 mutated Fc)-Ly253 scFv VH-VL + Ly312 LC) heavy: not shown light: DIQLTQSPSSLSASVGDRVTITCRAGESVDIFGVGFLHWYQQKPGKAPKLLIYRASNLESGVPSRFSGSGSRTDFTLTISSLQPEDFATYYCQQTNEDPYTFGQGTKVEIKRTVAAPSVFIFPPSDEQLKSGTASVVCLLNNFYPREAKVQWKVDNALQSGNSQESVTEQDSKDSTYSLSSTLTLSKADYEKHKVYACEVTHQGLSSPVTKSFNRGEC | binds |
| Ly462 (bispecific antibody, human IgG1, kappa, Ly368 HC-TM740 scFv VL-VH + Ly368 LC) heavy: QVQLKESGPGLVAPSQSLSITCTVSGFSLTDYGVRWIRQPPGKGLEWLGVIWGGGSTYYNSALKSRLSISKDNSKSQVFLKMNSLQTDDTAMYYCAKEKRRGYYYAMDYWGQGTSVTVSSASTKGPSVFPLAPSSKSTSGGTAALGCLVKDYFPEPVTVSWNSGALTSGVHTFPAVLQSSGLYSLSSVVTVPSSSLGTQTYICNVNHKPSNTKVDKKVEPKSCDKTHTCPPCPAPELLGPSVFLFPPKPKDTLMISRTPEVTCVVVDVSHEDPEVKFNWYVDGVEVHNAKTKPREEQYNSTYRVVSVLTVLHQDWLNGKEYKCKVSNKALPAPIEKTISKAKGQPREPQVYTLPPSREEMTKNQVSLTCLVKGFYPSDIAVEWESNGQPENNYKTTPPVLDSDGSFFLYSKLTVDKSRWQQGNVFSCSVMHEALHNHYTQKSLSLSPGGGGGSGGGGSGGGGSGGGGSDIQMTQSPSSLSASVGDRVTITCKASQNIYIYLNWYQQKPGKAPKLLIYNTNNLQTGVPSRFSGSGSGTDFTLTISSLQPEDFATYYCLQHSSRRTFGGGTKVEIKGGGGSGGGGSGGGGSGGGGSQVQLVESGGGLVQPGGSLKLSCATSGFNFNDYFMNWVRQASGKGLEWVGQIRNKNYNYATYYTESLEGRVTISRDDSKNTAYLQMNSLKTEDTAVYYCTSYYYDGFADYFDYWGQGTTVTVSS light: ENVLTQSPAIMSASPGEKVTMTCRASSSVSSSYLHWYQQKSGASPKLWIYSTSNLASGVPARFSGSGSGTSYSLTISSVEAEDAATYYCQQYSGYPLTFGGGTKLEIKRTVAAPSVFIFPPSDEQLKSGTASVVCLLNNFYPREAKVQWKVDNALQSGNSQESVTEQDSKDSTYSLSSTLTLSKADYEKHKVYACEVTHQGLSSPVTKSFNRGEC | binds |
